Test results from patent US20230374475A1.

How the values were obtained:
[1] = target: T1, TgoRTxo (exonuclease-deficient engineered Tgo reverse transcriptase) (Thermococcus gorgonarius) (UniProt P56689); conditions: RT efficiency without KPCNA; Mg, dNTPs; about 45% with 1 uM KPCNA
T1 sequence: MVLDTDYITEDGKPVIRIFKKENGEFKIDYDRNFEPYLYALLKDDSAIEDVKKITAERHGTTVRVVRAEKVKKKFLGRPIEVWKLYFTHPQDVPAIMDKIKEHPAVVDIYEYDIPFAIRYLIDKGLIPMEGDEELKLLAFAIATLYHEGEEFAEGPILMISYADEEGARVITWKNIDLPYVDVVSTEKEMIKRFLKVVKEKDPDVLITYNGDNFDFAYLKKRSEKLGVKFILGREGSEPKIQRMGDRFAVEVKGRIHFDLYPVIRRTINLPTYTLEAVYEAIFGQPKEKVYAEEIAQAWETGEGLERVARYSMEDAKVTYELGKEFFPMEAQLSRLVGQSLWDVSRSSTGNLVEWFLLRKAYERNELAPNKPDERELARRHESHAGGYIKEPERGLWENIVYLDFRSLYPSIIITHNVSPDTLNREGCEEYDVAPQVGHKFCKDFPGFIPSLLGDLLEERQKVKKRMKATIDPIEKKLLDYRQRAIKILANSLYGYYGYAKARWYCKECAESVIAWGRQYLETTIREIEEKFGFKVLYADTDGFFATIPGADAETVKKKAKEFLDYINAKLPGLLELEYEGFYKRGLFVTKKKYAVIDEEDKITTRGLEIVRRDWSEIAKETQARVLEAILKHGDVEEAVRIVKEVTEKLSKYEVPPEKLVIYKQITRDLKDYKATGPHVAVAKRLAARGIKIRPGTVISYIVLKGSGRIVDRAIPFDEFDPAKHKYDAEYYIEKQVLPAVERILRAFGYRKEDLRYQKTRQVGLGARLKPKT

[2] = target: engineered T. gorgonarius reverse-transcriptase lacking proof reading activity (3'-5' exonuclease) (TgoRTxo) (Thermococcus gorgonarius (engineered)) (UniProt P56689); test: cell-based or functional assay

~600 nt RNA template with DNA primer
activity [1]: 10%

T. kodakarensis proliferating cell nuclear antigen (KPCNA) (from UniProt Q5JF32 2-249)
RT efficiency of TgoRTxo at 3.5 uM KPCNA compared to no KPCNA [2]: 3 fold | efficiency of reverse transcription (fold increase, KPCNA raised from 0 to 1 uM) [2]: 4 fold | reverse transcriptase efficiency of TgoRTxo in the absence of KPCNA (baseline) [2]: 10% | reverse transcriptase efficiency of TgoRTxo with 1 uM KPCNA [2]: 45%
